Laboratory results reported in patent US11912777 (NANJING LEADS BIOLABS, dated 2024).
Where a chain is given by its changes, count along the chain named.

What was measured:
[1] = biological target: T1, His-tagged human TNFR2 (Sino Biological, Cat #10417-H08H) (human, UniProt P20333 23-257); assay: BLI (Octet RED 96), antibody on Fc capture tips, His-tagged TNFR2 as analyte, 1:1 global fit
T1 construct: Bought reagent, analyte in BLI; also called recombinant human TNFR2; not shown: His tag
T1 sequence (looked up): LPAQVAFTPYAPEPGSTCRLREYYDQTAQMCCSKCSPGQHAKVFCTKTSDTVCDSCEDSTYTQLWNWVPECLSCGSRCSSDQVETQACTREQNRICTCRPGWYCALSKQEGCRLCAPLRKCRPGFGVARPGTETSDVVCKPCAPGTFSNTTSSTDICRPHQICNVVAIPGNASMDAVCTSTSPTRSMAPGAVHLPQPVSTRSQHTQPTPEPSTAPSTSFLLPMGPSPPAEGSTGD

[2] = biological target: T2, His-tagged cynomolgus monkey TNFR2 (Sino Biological, Cat #90102-C08H) (cynomolgus monkey, UniProt A0A2K5VET2 132-366); assay: as above
T2 construct: Bought reagent, analyte in BLI; also called Cynomolgus TNFR2; recombinant cynomolgus monkey TNFR2; not shown: His tag
T2 sequence: T1 sequence (looked up) with S16G, S36P, P117Q, N164H, E210A, S216G, M223V

Kd [1]: 5.32 nM
koff [1]: 0.00192 s⁻¹
kon [1]: 361000 M⁻¹ s⁻¹
Kd [2]: 3.62 nM
koff [2]: 0.00185 s⁻¹
kon [2]: 512000 M⁻¹ s⁻¹
B1: humanized antibody hu3-E (Hu3-H3/Hu3-L1) (antibody, human IgG1, kappa, V domains shown)
VH: QIQLVQSGAEVKKPGASVKVSCKASGYTFTTYGMSWVRQAPGQGLEWMGWIHTYSGVPTYADDFKGRFAFTLDTSTSTAYMELRSLRSDDTAVYYCARGLYGVDYWGQGTLVTVSS
VL: EIVMTQSPATLSLSPGERATLSCKASENVVTYVSWYQQKPGQAPRLLIYGASNRYTGIPARFSGSGSATDFTLTISSLQPEDFAVYYCGQSYTYPYTFGQGTKLEIKR
notes: Humanized form of 43B7A4, human IgG1/kappa
